Assay results as given in paper doi:10.1101/2020.08.15.252130.
Read-outs that look alike come from different tables or passages of the source.

T1: LS2 linker-RRM2 (Drosophila melanogaster, UniProt Q9W1T4 204-325)
T1 sequence: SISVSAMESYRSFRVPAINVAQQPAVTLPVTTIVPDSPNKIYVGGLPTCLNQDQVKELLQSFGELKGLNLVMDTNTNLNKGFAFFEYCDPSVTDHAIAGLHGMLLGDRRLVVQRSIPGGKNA


Key:
Assay in all cases: NMR
[1] = target: LS2 RRM2 (Drosophila melanogaster, UniProt Q9W1T4 242-319)
[2] = target: T2, LS2 RRM1 (Drosophila melanogaster, UniProt Q9W1T4 110-204)
[3] = target: LS2 RRM1,2 (Drosophila melanogaster, UniProt Q9W1T4 110-325)
[4] = target: T1, LS2 linker-RRM2
[5] = target: T2, LS2 RRM1; remark: listed apart in the source

| Binder | binding result [1] | binding result [2] | binding result [3] | binding result [4] | binding result [5] |
| --- | --- | --- | --- | --- | --- |
| GGGUGGUGGAGGGG (structured_RNA) [14-mer] | no binding | binds |  |  |  |
| CGUAUGA (ssRNA) [7-mer (3' end of 21-mer)] | no binding |  |  |  |  |
| GGGGAGGAGGGGGGCGUAUGA (structured_RNA) [21-mer G4 RNA] | binds |  | binds | binds | binds |
| GGUGGUGG (structured_RNA) [8-mer] |  | binds |  |  |  |
